Assay results taken from PMC7810883, “Phosphorylation-induced changes in the PDZ domain of Dishevelled 3” (Scientific Reports, 2021).
Non-standard residues stand in square brackets, D forms with d. pS = N[C@@H](COP(=O)(O)O)C(=O)O

Tests used:
[1] = biological target: T1, PDZ domain of human Dishevelled 3 (DVL3), aa 243-338, wild type (human, UniProt Q92997 243-338); assay: NMR titration; 1H-15N HSQC of 100 uM 15N-labelled PDZ wt/mutant with increasing amounts of C-terminal peptide (stock 800 uM, up to four-fold over PDZ); 50 mM sodium-phosphate pH 6.5, 50 mM KCl; details: both partners purified
T1 construct: PDZ domain of human Dishevelled 3 (DVL3), residues 243-338; Cloned in pETM11; also called PDZ wt; hDvl3 PDZ WT domain; source: E. coli BL21(DE3), minimal media (15N or 15N,13C labelling), purified (Ni-NTA, TEV, Q-sepharose, SEC); not shown: His6, N-terminal, cleaved
T1 sequence (looked up): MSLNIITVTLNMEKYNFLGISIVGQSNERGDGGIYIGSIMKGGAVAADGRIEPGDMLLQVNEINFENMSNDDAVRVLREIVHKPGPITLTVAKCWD

[2] = biological target: T2, PDZ domain of human Dishevelled 3 (DVL3), aa 243-338, S280E (human, UniProt Q92997 243-338, S280E); assay: as above; details: both partners purified
T2 construct: PDZ domain of human Dishevelled 3 (DVL3), residues 243-338, phosphomimetic mutant S280E; Made by site-directed mutagenesis of pETM11-PDZ; also called PDZ S280E; source: E. coli BL21(DE3), minimal media (15N or 15N,13C labelling), purified (Ni-NTA, TEV, Q-sepharose, SEC); not shown: His6, N-terminal, cleaved
T2 sequence (looked up): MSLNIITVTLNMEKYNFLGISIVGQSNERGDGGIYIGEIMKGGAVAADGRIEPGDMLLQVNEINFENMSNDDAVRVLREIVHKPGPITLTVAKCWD

- binding result [1]: binds
- binding result [2]: binds
B1: C-terminal DVL peptide consisting of aa 698-716 from DVL3 with phosphorylated pS700 (peptide, UniProt Q92997 698-716, looked up)
peptide: H-RQ[pS]FRMAMGNPSEFFVDVM-OH
notes: C-terminus of human Dishevelled 3 (DVL3), residues 698-716; The phosphorylation at S700 is told only in the methods; also called C-terminal peptide (698-716); C-terminus ligand
